The results in this text go back to paper PMC8558862, “Imaging of Dysfunctional Elastogenesis in Atherosclerosis Using an Improved Gadolinium-Based Tetrameric MRI Probe Targeted to Tropoelastin” (Journal of Medicinal Chemistry, 2021).

Ends that are not written are not given here. (Gd-DOTA)4‑MI = maleimide-bearing lysine-based tetramer of four Gd(III)-DOTA-monoamide chelates

For data set [1], the system named is atherosclerotic plaques in the brachiocephalic artery of ApoE–/– mice. The data set is described as follows: In vivo LGE MRI at 3 T in atherosclerotic ApoE–/– mice. The following applies: 0.2 mmol kg^–1 i.v.
Experimental: The Gd4-TESMA probe was assessed for its ability to enhance the MRI signal within plaques in the brachiocephalic artery of an ApoE^–/– murine model of plaque progression and in control nonatherosclerotic mice. For these studies, atherosclerotic ApoE^–/– mice were scanned after the tandem administration of Gd-ESMA, Gd-TESMA (24 h after the Gd-ESMA administration), and finally Gd4-TESMA (24 h after the Gd-TESMA administration; Supporting Information Figure S1). […] All molecular probes were injected at a dose of 0.2 mmol kg^–1 (corresponding to the same dose of injected gadolinium for Gd-ESMA and Gd-TESMA and to a dose of 0.8 mmolGd kg^–1 for Gd4-TESMA). […]
Following a 3D GRE scout scan, contrast-enhanced angiography images were acquired for visualization of the aortic root, aortic arch, and brachiocephalic and carotid arteries with a FOV = 30 × 30 × 8 mm, matrix = 200 × 200, in-plane resolution = 0.15 × 0.15 mm (reconstructed = 0.10 × 0.10 mm), slice thickness = 0.5 mm, TR/TE = 15/6.1 (ms), and flip angle = 40°. […] Late gadolinium enhanced images were acquired with an inversion-recovery 3D fast gradient echo sequence every 30 min for up to 2 h postinjection of the contrast agent and were used to visualize and quantify contrast uptake.
Data set [2] can be described thus: Relaxometry: water proton longitudinal relaxivity. In kind it is physicochemical. The following applies: 298 K, 3.8 mM HEPES, 150 mM NaCl, pH 7.2. The method, then: The relaxivity per gadolinium of Gd4-TESMA is 8.5 ± 0.2 mM^–1 s^–1 (at 20 MHz, 298 K, 3.8 mM HEPES, 150 mM NaCl, pH 7.2; Table 1), while that of Gd-TESMA under the same conditions cannot be defined uniquely as it changes with the concentration of the complex.
The water proton longitudinal relaxation rates as a function of the magnetic field strength were measured in aqueous solutions using a Fast Field-Cycling Stelar SmarTracer relaxometer (Stelar s.r.l., Mede (PV), […] MHz proton Larmor frequencies). The relaxometer operates under computer control with an absolute uncertainty in 1/T1 of 1%. […] The ^1H T1 relaxation times were acquired by the standard inversion recovery method with a typical 90° pulse width of 3.5 μs, 16 experiments, and 4 scans. The temperature was controlled using a Stelar VTC-91 airflow heater equipped with a calibrated copper–constantan thermocouple (uncertainty of ±0.1 °C).
MRI data are presented as median ± interquartile range (IQR). […] P values <0.05 were considered statistically significant.

Data set [3] deals with T1, immobilized human recombinant tropoelastin (Homo sapiens, UniProt P15502).
T1 construct: purchased Advanced BioMatrix 5052-1MG
T1 sequence (P15502 27-786): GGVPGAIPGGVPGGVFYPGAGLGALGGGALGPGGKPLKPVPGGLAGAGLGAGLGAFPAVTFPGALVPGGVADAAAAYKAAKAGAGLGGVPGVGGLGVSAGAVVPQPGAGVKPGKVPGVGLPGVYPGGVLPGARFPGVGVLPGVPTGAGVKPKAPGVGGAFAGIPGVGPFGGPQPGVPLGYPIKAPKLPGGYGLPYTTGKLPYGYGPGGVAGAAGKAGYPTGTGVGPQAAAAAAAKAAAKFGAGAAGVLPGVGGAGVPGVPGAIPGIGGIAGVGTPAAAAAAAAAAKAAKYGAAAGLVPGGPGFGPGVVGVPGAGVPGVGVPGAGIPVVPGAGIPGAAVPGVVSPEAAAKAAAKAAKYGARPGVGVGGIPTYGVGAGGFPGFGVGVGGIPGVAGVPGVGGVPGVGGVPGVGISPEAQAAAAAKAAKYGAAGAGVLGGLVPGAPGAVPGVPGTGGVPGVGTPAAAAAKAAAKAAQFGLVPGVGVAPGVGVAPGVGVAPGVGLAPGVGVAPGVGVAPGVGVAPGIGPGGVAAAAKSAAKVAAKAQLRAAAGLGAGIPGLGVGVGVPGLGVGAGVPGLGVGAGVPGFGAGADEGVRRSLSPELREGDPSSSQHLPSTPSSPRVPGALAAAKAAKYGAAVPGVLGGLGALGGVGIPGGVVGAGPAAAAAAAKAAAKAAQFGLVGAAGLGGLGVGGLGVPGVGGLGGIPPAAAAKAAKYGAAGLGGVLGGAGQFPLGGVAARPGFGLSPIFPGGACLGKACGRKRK
The data set is described as follows: Surface plasmon resonance binding affinity (kinetic mode, 1:1 Langmuir model). The following applies: SPR Biacore 2000, CM5 chip, 25 °C, HEPES running buffer pH 7.4; mean ± SD of triplicate measurements. On the technique in general: Surface plasmon resonance follows binding to a sensor surface in real time, without labels.
Experimental: The binding affinity of Gd-TESMA and Gd4-TESMA to tropoelastin was assessed by surface plasmon resonance (SPR) under the kinetic affinity mode.
The binding affinity between tropoelastin (human recombinant tropoelastin, Advanced BioMatrix, Cat. No. 5052-1MG, Batch No. 7932) and Gd4-TESMA or Gd-TESMA was assessed by surface plasmon resonance (SPR) on a Biacore 2000 instrument (Cytiva). The instrument was equipped with a CM5 sensor chip carrying carboxymethylated dextran (Cytiva). First, the ligand was immobilized on the sensor chip surface by amine coupling: the flow cell was activated for 7 min by a 1-ethyl-3-(3-dimethylaminopropyl)carbodiimide hydrochloride (EDC)/N-hydroxysuccinimide (NHS) mixture. Then, tropoelastin was injected at 200 μM in a 10 mM sodium acetate buffer (pH 4) with a flow rate of 5 μL min^–1 to reach an immobilization level corresponding to 3500–5000 resonance units (R.U.). The remaining active sites were blocked by 1 M of ethanolamine-HCl (pH 8.5) for 7 min. As a control for nonspecific interaction, another flow cell on the CM5 sensor chip was treated in the same manner but without adding tropoelastin. […] The equilibrium dissociation constant (KD) and the kinetic association and dissociation rate constants (ka and kd) were determined by curve-fitting using the 1:1 Langmuir binding model implemented in the Biaevaluation software 4.1.1.[48] […]

The nature of data set [4]: 1H NMRD profile fitting (SBM and Freed theory). The data set is classed as physicochemical. The following applies: HEPES buffer pH 7.2; Gd-TESMA NMRD at 2.3 mM. As to the method: Figure 4 ^1H NMRD profiles showing the millimolar relaxivity per gadolinium r1p of Gd-TESMA (2.3 mM, solid symbols) and Gd4-TESMA (1.3 mM, open symbols) in the HEPES buffer (pH 7.2) at 298 K (circles) and 310 K (squares). The solid line represents the best fitting of the experimental points at 310 K to the SBM and Freed theory of paramagnetic relaxation. The following parameters were kept fixed: water diffusion coefficient (D) = 3.1 10^–5 cm^2 s^–1; distance between Gd(III) and the inner sphere water protons (r) = 3.1 Å; number of inner sphere water molecules (q) = 1; and distance of the closest approach of outer-sphere water protons = 3.8 Å. Curve fitting converged to the following: correlation time for molecular reorientation (τR) = 170 ps; residence lifetime of the inner sphere water molecule (τM) = 460 ns; correlation time for electronic relaxation (τv) = 47 ps; and zero-field splitting energy (Δ^2) = 1.3 10^19 s^–2. […]
The water proton longitudinal relaxation rates as a function of the magnetic field strength were measured in aqueous solutions using a Fast Field-Cycling Stelar SmarTracer relaxometer (Stelar s.r.l., Mede (PV), Italy) over a continuum of magnetic field strengths from 0.00024 to 0.25 T (corresponding to 0.01–10 MHz proton Larmor frequencies). […]

Data set [5] is described as follows: Serum stability by RP-HPLC. The following applies: male, human, 50% (v/v) aqueous pooled human serum. As to the method:
The stabilities of Gd4-TESMA and the parent VVGS-peptide in human serum were evaluated by HPLC (Figure 6). Compounds were incubated up to 120 min, and aliquots were taken at different times: 0, 35, and 120 min.
The serum stabilities of Gd4-TESMA and its parent peptide (VVGS-peptide) were determined in 50% (v/v) aqueous pooled serum from human male AB plasma, which was purchased from Sigma-Aldrich (Milan, Italy). Samples were dissolved in water (6.6 mM), diluted in serum (previously centrifuged at 8000 rpm for 15 min at 4 °C) at a final concentration of 0.6 mM (220 μL), and subsequently incubated at 37 °C. Aliquots (6 μL) taken after 0, 35, and 120 min were diluted in water at a final concentration of 0.06 mM. The samples were analyzed by RP-HPLC using an Atlantis dC18 column, 5 μm, 4.6 × 150 mm, as described in ref ([47]). The amount of intact compound was estimated by integrating the area under the corresponding elution peak monitored at 210 nm. Five replicate experiments for each compound were carried out. The […] (HPLW peptide),[47] unrelated to TESMA, was used as a positive control.

Data set [6] deals with T2, human recombinant tropoelastin (human, UniProt P15502 27-786).
T2 construct: tropoelastin (soluble elastin precursor), human, recombinant; also called TE; source: bought: Advanced BioMatrix (Cat. No. 5052-1MG, Batch No. 7932)
T2 sequence (looked up): T1 sequence (P15502 27-786)
The data set is described as follows: SPR; Biacore 2000; tropoelastin immobilised on a CM5 chip by amine coupling (3500-5000 R.U.); analyte injected at 20 uL/min for 3 min at 25 °C in HEPES running buffer (pH 7.4, HBS-P) or 10 mM HEPES; control flow cell subtracted; 1:1 Langmuir fit; triplicate. The following applies: both partners purified.

Take C-GAESAPLVSSVQSPD [Gd4-scTESMA]: the “accumulation within plaques” value in data set [1] (ApoE–/– mice, LGE MRI, in comparison to Gd4-TESMA) is recorded as “low/negligible accumulation within plaques”.
For “Gd-TESMA: single Gd-DOTA monoamide unit conjugated with a 15-residue peptide sequence (VVGS-peptide); monomeric counterpart, purchased (VVGSPSAQDEASPLS; also: single Gd-DOTA monoamide unit conjugated, site not given here) [reference compound]”, the “relaxivity per gadolinium at 18 μM probe” value in data set [2] (18 μM probe, 20 MHz) stood at 6.1 mM^–1 s^–1. In addition, in data set [2] (1 mM probe, 20 MHz, mean ± SD), the “relaxivity r1 at 20 MHz, probe at 1 mM” value is given as 10.0 ± 0.3 mM^–1 s^–1. Also, in data set [2] (1 mM probe, 125 MHz, mean ± SD), the “relaxivity r1 at 125 MHz, probe at 1 mM” value is reported as 10.4 ± 0.3 mM^–1 s^–1. Further, the “relaxivity per gadolinium at 2.3 mM probe” value in data set [2] (2.3 mM probe, 20 MHz) is listed as 12.4 mM^–1 s^–1. The “dissociation rate constant kd” value in data set [3] was 2.3 × 10^–2 ± 0.5 × 10^–2 s^–1. Moreover, the “vessel wall-to-blood CNR at 0.5 h postinjection” value in data set [1] (ApoE–/– mice on HFD 16 weeks, 3 T LGE MRI, 0.5 h, median (IQR)) turned out to be 6.75. Moreover, the “aggregation (inferred from concentration dependence of relaxivity and NMRD profile)” value in data set [4] was “self-assembled into aggregates with high polydispersity at relatively high concentrations”.
One may read the half-life as the time needed for the level to fall by half in the phase considered. Low values mean fast loss, high ones slow loss. A word on the fraction remaining: it is the share of the starting amount still present when the sample was taken. A low value points to a greater loss. In data set [5], VVGSPSAQDEASPLS [VVGS-peptide] registered a half-life at 0.6 mM of around 45 min and an amount remaining at 2 h, 0.6 mM of around 20%.

B1: Gd-TESMA (peptide)
peptide: VVGSPSAQDEASPLS
modifications: also: single Gd-DOTA monoamide unit conjugated, site not given here
notes: also called monomeric Gd-TESMA probe; source: bought: For Peptide Protein Research Limited (Fareham, UK)
By Kd is commonly meant the constant that tells how readily two partners part at equilibrium. The koff is the first-order rate constant of dissociation. Usually kon stands for the rate constant with which the complex forms. For the molecule B1, in data set [6], the Kd worked out at 28 µM, the koff came to 0.023 s⁻¹ and the kon was found to be 880 M⁻¹ s⁻¹.

B2: Gd4-TESMA (peptide)
peptide: C((Gd-DOTA)4‑MI)VVGSPSAQDEASPLS
modifications: also: Gd(III) chelates, thiol/maleimide conjugation
notes: also called tetrameric Gd4-TESMA probe; source: synthetic peptide (Fmoc SPPS), reacted with [Gd-DOTA]4-MI, purified by semipreparative HPLC
As to B2, the Kd in data set [6] came out at 41 µM.
